Measurements: article PMC7459580, “Molecular Basis for Endocrine Disruption by Pesticides Targeting Aromatase and Estrogen Receptor” (International Journal of Environmental Research and Public …, 2020)

Experiments:
aromatase (Aro) = target: T1, aromatase (Aro) (Homo sapiens, UniProt P11511); test: estrone competitive ELISA with purified aromatase and CPR; assay type: biochemical; details: read-out: % residual activity at 1000 nM
T1 construct: gene CYP19A1; recombinant human aromatase; with human cytochrome P450 reductase (hCPR), electron donor
T1 sequence (P11511 whole entry): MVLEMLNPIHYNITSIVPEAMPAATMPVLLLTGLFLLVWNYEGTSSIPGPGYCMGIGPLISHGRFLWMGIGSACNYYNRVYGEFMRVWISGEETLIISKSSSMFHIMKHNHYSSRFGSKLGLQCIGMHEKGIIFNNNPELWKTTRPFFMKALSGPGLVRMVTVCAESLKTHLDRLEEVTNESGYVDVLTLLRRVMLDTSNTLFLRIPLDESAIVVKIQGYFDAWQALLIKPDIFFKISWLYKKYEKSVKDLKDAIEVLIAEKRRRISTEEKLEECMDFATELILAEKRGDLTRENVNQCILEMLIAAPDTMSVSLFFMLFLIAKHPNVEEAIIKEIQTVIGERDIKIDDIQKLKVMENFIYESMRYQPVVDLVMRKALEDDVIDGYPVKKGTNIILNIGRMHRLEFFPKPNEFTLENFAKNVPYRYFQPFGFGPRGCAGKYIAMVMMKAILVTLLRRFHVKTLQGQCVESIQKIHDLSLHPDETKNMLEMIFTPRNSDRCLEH
T1 sequence (P16435 2-677, further chain): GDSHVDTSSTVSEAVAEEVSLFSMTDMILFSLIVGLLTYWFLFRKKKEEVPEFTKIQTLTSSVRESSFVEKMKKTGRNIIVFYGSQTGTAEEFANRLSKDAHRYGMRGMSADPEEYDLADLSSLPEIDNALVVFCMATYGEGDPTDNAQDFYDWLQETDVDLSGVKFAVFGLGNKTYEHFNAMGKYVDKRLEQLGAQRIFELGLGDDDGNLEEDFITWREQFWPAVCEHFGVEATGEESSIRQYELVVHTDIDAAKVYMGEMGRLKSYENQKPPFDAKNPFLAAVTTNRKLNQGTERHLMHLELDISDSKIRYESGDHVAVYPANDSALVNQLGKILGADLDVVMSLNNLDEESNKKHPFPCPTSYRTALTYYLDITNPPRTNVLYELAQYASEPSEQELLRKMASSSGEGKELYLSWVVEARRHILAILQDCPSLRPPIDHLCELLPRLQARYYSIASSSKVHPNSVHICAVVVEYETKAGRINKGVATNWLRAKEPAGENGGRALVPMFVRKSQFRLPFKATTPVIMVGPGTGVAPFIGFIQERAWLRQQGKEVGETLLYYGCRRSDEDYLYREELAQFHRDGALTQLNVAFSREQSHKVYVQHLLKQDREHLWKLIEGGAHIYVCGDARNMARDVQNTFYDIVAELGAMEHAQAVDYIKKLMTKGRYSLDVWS

[1] = test system: C[C@]12CCC(=O)C=C1CC[C@@H]1[C@@H]2CC[C@]2(C)C(=O)CC[C@@H]12; test: purified protein; details: heme; NADPH active site

With `CC(C)(C#N)c1cc(Cn2cncn2)cc(C(C)(C)C#N)c1` [anastrozole] the remaining activity at 1 µM (aromatase (Aro)) was 0.7%.

For aromatase (Aro) (Homo sapiens), the Km [1] was 0.0413 ± 0.0082 µM and the kcat [1] was 0.0003 ± 1.67e-05 s⁻¹.
